Test results as given in patent US20220265819A1.

Columns and labels:
[1] = target: full length pHrodo-labelled aggregated (P301S) 2N4R tau (human) (UniProt P10636); assay: cell-based or functional assay
[2] = target: full length pHrodo-labelled monomeric (P301S) 2N4R tau (human) (UniProt P10636); assay: cell-based or functional assay
Chain of full length pHrodo-labelled monomeric (P301S) 2N4R tau (human) (P10636 other isoform, or with tags, fused parts or gaps P301S P301S): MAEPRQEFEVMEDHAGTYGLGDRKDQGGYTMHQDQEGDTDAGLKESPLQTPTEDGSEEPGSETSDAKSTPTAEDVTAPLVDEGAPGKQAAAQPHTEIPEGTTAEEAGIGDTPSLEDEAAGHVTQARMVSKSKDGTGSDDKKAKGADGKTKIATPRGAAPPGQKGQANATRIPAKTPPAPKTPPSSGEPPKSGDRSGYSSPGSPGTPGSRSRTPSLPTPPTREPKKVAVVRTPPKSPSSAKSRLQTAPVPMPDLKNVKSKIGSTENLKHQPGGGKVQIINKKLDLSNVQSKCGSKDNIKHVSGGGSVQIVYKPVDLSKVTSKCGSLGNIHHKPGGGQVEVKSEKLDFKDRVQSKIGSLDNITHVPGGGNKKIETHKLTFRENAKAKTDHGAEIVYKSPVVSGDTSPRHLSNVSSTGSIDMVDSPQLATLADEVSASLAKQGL

Chain of full length pHrodo-labelled aggregated (P301S) 2N4R tau (human) (P10636 other isoform, or with tags, fused parts or gaps P301S P301S): as above

inhibition of uptake of aggregated tau by human iPSC-derived astrocytes [1]: 46.3 % inhibition | inhibition of uptake of aggregated tau into human iPSC-derived neurons [1]: 65 % inhibition | inhibition of uptake of pHrodo-labelled aggregated tau into human iPSC-derived neurons at 4 h [1]: 69 % inhibition | inhibition of uptake of monomeric tau by human iPSC-derived astrocytes [2]: 39.8 % inhibition | inhibition of uptake of monomeric tau into human iPSC-derived neurons [2]: 41.2 % inhibition
B1: Clone 1 rabbit monoclonal IgG (antibody, V domains shown)
VH: QSLEESGGGLVKPGGTLTLTCTVSGFSLNNYDMSWVRQAPGKGLEWIGTVSTTYRRYYASWAKGRFTISKTSSTTVDLKMTSLTTEDTATYFCAASGIWGPGTLVTVSL
VL: AQVLTQTTSPVSAAVGGTVTINCQSSQRVYSNYLAWYQQKPGQPPKRLIFLASTLESGVPSRFSGSGSGTQFTLTISDLECDDAATYYCAGTYTGSIWAFGGGTEVVVKG
